Assay results taken from patent US20260000764A1 (CITY OF HOPE, published 2026).

T1: Biotinylated recombinant human IL-13Rα1 ectodomain with C-terminal biotin acceptor peptide and hexahistidine … (human, UniProt P78552 22-343, biotin on the biotin acceptor peptide (coexpressed with BirA ligase))
T1 construct: extracellular domain; also called recombinant IL13Rα1; biotinylated IL13Rα1
T1 sequence: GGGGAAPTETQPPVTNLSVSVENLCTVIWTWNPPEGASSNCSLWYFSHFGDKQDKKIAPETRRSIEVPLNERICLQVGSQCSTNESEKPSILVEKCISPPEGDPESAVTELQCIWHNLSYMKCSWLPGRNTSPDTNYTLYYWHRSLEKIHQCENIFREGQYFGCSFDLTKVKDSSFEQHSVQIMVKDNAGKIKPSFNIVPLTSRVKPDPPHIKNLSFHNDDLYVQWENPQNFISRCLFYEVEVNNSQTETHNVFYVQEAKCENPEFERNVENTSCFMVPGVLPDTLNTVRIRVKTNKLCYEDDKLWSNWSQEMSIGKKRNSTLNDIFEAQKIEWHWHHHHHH

T2: Biotinylated recombinant human IL-13Rα2 ectodomain with C-terminal biotin acceptor peptide and hexahistidine … (human, UniProt Q14627 27-343, biotin on the biotin acceptor peptide (coexpressed with BirA ligase))
T2 construct: extracellular domain; also called recombinant IL13Rα2; biotinylated IL13Rα2
T2 sequence: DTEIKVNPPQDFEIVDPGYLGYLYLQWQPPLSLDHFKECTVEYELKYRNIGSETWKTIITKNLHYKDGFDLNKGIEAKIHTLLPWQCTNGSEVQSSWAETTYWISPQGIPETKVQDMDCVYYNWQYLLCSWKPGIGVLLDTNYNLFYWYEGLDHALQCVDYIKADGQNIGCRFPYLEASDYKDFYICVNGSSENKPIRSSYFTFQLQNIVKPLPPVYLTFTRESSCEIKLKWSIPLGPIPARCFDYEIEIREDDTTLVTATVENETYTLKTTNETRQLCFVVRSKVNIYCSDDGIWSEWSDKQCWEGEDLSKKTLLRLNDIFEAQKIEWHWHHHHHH


How the values were obtained:
[1] = molecular target: T1, Biotinylated recombinant human IL-13Rα1 …; assay: SPR (Biacore T100), biotinylated IL-13Rα1 captured on SA chip, IL-13 C4 flowed; Ka and Kd cells are empty
Experimental: (§1) SPR experiments were conducted on a Biacore T100 instrument using a Biacore SA sensor chip (GE Healthcare). Biotinylated IL-13Rα1/IL-13Rα2 was captured at a low density (50-100 response units (RU)) and kinetics measurements were conducted at 30 μL/min. An unrelated biotinylated protein was immobilized as a reference surface for the SA sensor chip with matching RU to the experimental surface. All measurements were made using 3-fold serial dilutions of IL-13 agonists in the running buffer (1×HBS-P, 0.1% BSA). The IL-13Rα1/IL-13Rα2 bound to the chip surface was regenerated with 7 mM glycine (pH 3.0) and 250 mM NaCl. Kinetic parameters were determined using 120 s to 190 s of IL-13 agonist association time and 20 s to 1200 s dissociation time. All data fitting was performed using the Biacore T100 evaluation software version 2.0 with a 1:1 Langmuir binding model.

[2] = molecular target: T2, Biotinylated recombinant human IL-13Rα2 …; assay: SPR, IL-13Rα2 immobilized on the chip, IL-13 C4 flowed; panel titled IL-13C4/IL-13Rα2
Text: (§2) FIG. 2A-2F: IL-13Rα1 and IL-13Rα2 binding affinities of the IL-13 variant. (A-C) Surface plasmon resonance measurements of IL-13, IL-13 D7 and IL-13 C4 for IL-13Rα1. IL-13Rα1 was immobilized on the surface of the chip and the indicated doses of IL-13 or the two IL-13 mutants were flowed. (D-F) Surface plasmon resonance measurements of IL-13,IL-13 D7 and IL-13 C4 for IL-13Rα2. IL-13Rα2 was immobilized on the surface of the chip and the indicated doses of IL-13 or the two IL-13 mutants were flowed.
as §1

[3] = molecular target: T2, Biotinylated recombinant human IL-13Rα2 …; assay: SPR, Biacore T100, biotinylated receptor captured on SA chip, cytokine flowed, 1:1 Langmuir fit
Experimental: as §1

[4] = molecular target: T2, Biotinylated recombinant human IL-13Rα2 …; assay: SPR; ratio of the affinities for IL13Rα2 and IL13Rα1 (reference: IL13Rα1)
Experimental: as §1

[5] = molecular target: T1, Biotinylated recombinant human IL-13Rα1 …; assay: SPR, IL-13Rα1 immobilized on the chip, IL-13 C4 flowed; panel titled IL-13C4/IL-13Rα1; Kon and Koff cells empty
Text: as §2, §1

[6] = molecular target: T2, Biotinylated recombinant human IL-13Rα2 …; assay: SPR (Biacore T100), biotinylated IL-13Rα2 captured on SA chip, IL-13 C4 flowed, 1:1 Langmuir fit
Text: as §2, §1

[7] = molecular target: T1, Biotinylated recombinant human IL-13Rα1 …; assay: SPR; ratio column of the drawn table, IL13Rα1
Text: as §2, §1

[8] = molecular target: T1, Biotinylated recombinant human IL-13Rα1 …; assay: SPR (Biacore T100), biotinylated IL-13Rα1 captured on SA chip, IL-13 D7 flowed; Ka and Kd cells are empty
Experimental: as §1

[9] = molecular target: T1, Biotinylated recombinant human IL-13Rα1 …; assay: SPR, IL-13Rα1 immobilized on the chip, IL-13 D7 flowed; panel titled IL-13D7/IL-13Rα1; Kon and Koff cells empty
Text: as §2, §1

[10] = molecular target: T2, Biotinylated recombinant human IL-13Rα2 …; assay: SPR (Biacore T100), biotinylated IL-13Rα2 captured on SA chip, IL-13 D7 flowed, 1:1 Langmuir fit
Experimental: as §1

[11] = molecular target: T2, Biotinylated recombinant human IL-13Rα2 …; assay: SPR, IL-13Rα2 immobilized on the chip, IL-13 D7 flowed; panel titled IL-13D7/IL-13Rα2
Text: as §2, §1

| Kd [1] | koff [2] | kon [2] | Kd [3] | fold stronger affinity for IL13Rα2 relative to IL13Rα1 [4] | Kd [5] | koff [6] | kon [6] | KDwt/KD mut [7] | Kd [8] | Kd [9] | koff [10] | kon [10] | koff [11] | kon [11] | Binder |
| --- | --- | --- | --- | --- | --- | --- | --- | --- | --- | --- | --- | --- | --- | --- | --- |
| 36 µM | 0.000764 s⁻¹ | 1.94e+06 M⁻¹ s⁻¹ | 0.393 nM | 92000 fold | 36 µM | 0.000764 s⁻¹ | 1.94e+06 M⁻¹ s⁻¹ | 8200 | – | – | – | – | – | – | IL13 C4 variant, soluble recombinant protein with C-terminal hexahistidine tag (ligand, also called C4 mutein) GPVPPSTAVRELIEELVNITQNQKAPLCNGSMVWSINLTAGMYCAALESLINVSGCSAIEKTQRMLSGFCPHKVSAGQFSSLHVRDTRIEVAQFVKDLLNHLKELFTEGQFNHHHHHH |
| – | – | – | 0.003 nM | 1.4e+06 fold | – | – | – | 940 | 4.1 µM | 4.1 µM | 5.37e-05 s⁻¹ | 1.77e+07 M⁻¹ s⁻¹ | 5.37e-05 s⁻¹ | 1.77e+07 M⁻¹ s⁻¹ | IL13 D7 variant, soluble recombinant protein with C-terminal hexahistidine tag (ligand, also called D7 mutein) GPVPPSTAARELIEELFNITQNQKAPLCNGSMVWSINLTAGMYCAALESLINVSGCSAIEKTKRMLSGFCPHKVSAGQFPSLHVKKTRIEVAQFVKDLLIHLRKLFKEGQFNHHHHHH |
